# Assay results: publication PMC6367351 (Nature Communications, 2019)
# Where no end group is shown, it is not given here.
# T1: MinElp3 (Methanocaldococcus infernus, UniProt D5VRB9)
# T1 construct: gene Metin_0452; full length
# T1 sequence (D5VRB9 1-534): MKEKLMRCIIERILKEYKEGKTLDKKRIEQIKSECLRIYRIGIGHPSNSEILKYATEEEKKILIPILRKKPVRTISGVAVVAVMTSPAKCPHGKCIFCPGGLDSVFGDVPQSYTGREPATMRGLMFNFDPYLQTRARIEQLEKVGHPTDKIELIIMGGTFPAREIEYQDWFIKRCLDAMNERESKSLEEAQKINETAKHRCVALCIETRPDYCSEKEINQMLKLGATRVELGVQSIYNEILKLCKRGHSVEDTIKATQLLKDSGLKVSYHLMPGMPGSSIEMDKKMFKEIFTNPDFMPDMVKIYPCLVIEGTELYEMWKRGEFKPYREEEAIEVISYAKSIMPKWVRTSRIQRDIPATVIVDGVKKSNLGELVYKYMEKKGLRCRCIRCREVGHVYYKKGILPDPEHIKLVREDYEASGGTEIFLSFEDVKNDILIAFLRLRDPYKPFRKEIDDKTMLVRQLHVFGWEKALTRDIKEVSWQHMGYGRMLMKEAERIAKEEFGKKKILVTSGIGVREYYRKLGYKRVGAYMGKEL
# T2: MinElp3 (Methanocaldococcus infernus, UniProt D5VRB9, K150A)
# T2 construct: gene Metin_0452
# T2 sequence (D5VRB9 1-534 K150A): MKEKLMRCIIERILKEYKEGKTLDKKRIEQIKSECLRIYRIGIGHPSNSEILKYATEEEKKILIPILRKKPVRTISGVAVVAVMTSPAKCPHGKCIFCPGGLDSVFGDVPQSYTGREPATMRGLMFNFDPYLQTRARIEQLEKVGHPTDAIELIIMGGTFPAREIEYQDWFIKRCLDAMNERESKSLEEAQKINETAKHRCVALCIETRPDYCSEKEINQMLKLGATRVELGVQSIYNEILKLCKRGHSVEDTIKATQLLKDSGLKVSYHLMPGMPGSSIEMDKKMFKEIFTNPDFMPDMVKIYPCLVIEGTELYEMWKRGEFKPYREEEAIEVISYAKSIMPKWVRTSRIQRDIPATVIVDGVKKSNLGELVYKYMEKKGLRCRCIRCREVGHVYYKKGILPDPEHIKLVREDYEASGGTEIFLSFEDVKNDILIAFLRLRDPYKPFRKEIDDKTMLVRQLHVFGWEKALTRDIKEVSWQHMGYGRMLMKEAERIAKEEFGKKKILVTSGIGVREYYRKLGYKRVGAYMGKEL
# T3: MinElp3 (Methanocaldococcus infernus, UniProt D5VRB9 1-534)
# T3 sequence: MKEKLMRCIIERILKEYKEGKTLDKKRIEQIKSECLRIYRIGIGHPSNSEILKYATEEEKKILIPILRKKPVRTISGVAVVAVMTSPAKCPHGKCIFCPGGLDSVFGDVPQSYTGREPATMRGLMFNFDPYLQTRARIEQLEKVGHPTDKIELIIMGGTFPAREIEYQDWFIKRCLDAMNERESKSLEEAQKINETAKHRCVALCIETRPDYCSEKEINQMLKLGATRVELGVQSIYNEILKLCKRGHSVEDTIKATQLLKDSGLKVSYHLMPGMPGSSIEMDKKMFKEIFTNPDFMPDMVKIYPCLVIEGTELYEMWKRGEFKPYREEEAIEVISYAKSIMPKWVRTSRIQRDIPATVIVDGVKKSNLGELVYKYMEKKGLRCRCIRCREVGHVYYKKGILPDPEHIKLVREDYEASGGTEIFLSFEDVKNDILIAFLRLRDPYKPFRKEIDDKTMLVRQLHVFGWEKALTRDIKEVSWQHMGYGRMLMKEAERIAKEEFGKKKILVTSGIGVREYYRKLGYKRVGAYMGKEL
# T4: MinElp3 (Methanocaldococcus infernus) (UniProt D5VRB9)
# T4 sequence: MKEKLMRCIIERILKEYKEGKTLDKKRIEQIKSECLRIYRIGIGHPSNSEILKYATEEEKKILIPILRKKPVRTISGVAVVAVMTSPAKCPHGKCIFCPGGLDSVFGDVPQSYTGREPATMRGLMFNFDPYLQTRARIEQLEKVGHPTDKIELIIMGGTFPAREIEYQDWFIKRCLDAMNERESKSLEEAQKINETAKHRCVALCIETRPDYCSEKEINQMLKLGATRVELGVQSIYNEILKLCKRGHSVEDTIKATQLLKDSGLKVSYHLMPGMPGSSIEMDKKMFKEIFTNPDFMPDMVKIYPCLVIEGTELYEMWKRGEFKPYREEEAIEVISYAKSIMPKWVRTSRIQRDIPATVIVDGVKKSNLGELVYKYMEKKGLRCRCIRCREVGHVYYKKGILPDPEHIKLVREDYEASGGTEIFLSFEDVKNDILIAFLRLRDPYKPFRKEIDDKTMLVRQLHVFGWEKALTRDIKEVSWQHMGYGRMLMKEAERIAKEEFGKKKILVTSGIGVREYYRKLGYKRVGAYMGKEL
# T5: Methanocaldococcus infernus Elp3, full length (Methanocaldococcus infernus, UniProt D5VRB9 1-534)
# T5 chain: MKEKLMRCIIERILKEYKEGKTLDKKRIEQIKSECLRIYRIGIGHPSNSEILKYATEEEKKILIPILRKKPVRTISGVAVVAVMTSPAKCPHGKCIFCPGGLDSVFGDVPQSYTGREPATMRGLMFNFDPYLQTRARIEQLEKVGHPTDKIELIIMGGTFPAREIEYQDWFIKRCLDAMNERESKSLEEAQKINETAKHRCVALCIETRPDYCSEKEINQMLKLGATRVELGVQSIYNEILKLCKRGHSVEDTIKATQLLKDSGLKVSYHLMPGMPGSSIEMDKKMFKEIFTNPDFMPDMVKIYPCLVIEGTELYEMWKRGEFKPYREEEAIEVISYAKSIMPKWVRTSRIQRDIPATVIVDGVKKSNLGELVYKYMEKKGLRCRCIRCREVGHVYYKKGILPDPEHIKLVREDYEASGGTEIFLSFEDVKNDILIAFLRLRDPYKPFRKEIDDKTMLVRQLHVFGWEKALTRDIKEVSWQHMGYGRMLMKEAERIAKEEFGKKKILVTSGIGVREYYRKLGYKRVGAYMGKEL
# Assays:
# MinElp3 [1] = biological target: T6, MinElp3 (Methanocaldococcus infernus, UniProt D5VRB9, DEL466-486/INS466GSGSG); assay: ITC (also tRNA-induced acetyl-CoA hydrolysis); type: binding
# T6 construct: gene Metin_0452
# T6 sequence (D5VRB9 other isoform, or with tags, fused parts or gaps DEL466-486/INS466GSGSG): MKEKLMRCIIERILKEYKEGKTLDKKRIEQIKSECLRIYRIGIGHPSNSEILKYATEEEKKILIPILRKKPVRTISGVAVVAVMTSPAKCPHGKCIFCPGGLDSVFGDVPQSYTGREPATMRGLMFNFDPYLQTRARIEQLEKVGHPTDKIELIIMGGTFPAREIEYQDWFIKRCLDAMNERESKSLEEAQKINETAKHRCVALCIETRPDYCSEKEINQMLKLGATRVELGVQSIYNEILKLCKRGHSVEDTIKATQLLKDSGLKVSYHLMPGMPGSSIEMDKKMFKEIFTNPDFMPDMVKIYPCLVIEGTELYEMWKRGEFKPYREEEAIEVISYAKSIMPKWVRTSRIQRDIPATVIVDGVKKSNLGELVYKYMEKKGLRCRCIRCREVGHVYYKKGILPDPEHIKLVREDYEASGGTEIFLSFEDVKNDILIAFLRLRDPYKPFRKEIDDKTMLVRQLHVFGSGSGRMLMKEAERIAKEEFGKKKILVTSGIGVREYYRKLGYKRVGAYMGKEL
# MinElp3 [2] = biological target: T1, MinElp3; assay: ITC (also tRNA-induced acetyl-CoA hydrolysis); type: binding
# MinElp3 [3] = biological target: T2, MinElp3; assay: acetyl-CoA binding measurement (Supplementary Fig. 6b)
# DmcElp3 = biological target: T7, DmcElp3 (Dehalococcoides mccartyi, UniProt A0A1C7D1B7); assay: acetyl-CoA hydrolysis by purified protein, induced by yeast bulk tRNA (weak); type: biochemical
# T7 construct: gene cbdbA595
# T7 sequence (A0A1C7D1B7 whole entry): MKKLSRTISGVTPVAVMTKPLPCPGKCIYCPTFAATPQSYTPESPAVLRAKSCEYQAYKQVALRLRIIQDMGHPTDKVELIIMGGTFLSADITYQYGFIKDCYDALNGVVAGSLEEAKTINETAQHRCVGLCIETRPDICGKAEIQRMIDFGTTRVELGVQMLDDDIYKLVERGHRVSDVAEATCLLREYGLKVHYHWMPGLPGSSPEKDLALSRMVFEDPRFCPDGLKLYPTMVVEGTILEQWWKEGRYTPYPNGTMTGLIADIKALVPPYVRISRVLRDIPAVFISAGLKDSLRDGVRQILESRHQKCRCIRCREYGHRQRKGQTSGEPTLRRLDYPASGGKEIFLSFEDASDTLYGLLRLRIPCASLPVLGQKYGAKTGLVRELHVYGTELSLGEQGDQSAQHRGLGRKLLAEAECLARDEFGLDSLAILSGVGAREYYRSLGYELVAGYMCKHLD
# MinElp3 [4] = biological target: T3, MinElp3; assay: MST; details: EMSA: 25 C 30 min, 6% native PAGE at 4 C, tRNA stored in 20 mM HEPES pH 7.5, 150 mM NaCl, 5 mM DTT, 1 mM MgCl2, MST buffer not given in material
# [5] = tested on: DmcElp3 (Dehalococcoides mccartyi); assay: MST; details: EMSA: 25 C 30 min, 6% native PAGE at 4 C; tRNA stored in 20 mM HEPES pH 7.5, 150 mM NaCl, 5 mM DTT, 1 mM MgCl2; MST buffer not given in material
# [6] = tested on: HsMinElp3 (Methanocaldococcus infernus / Homo sapiens chimera); assay: MST; details: mean of 180, 141, 108; EMSA: 25 C 30 min, 6% native PAGE at 4 C; tRNA stored in 20 mM HEPES pH 7.5, 150 mM NaCl, 5 mM DTT, 1 mM MgCl2; MST buffer not given in material
# [7] = tested on: MinElp3Δ1-41 (Methanocaldococcus infernus); assay: MST; details: legend omits CCA; wt data identical to the CCA set; EMSA: 25 C 30 min, 6% native PAGE at 4 C; tRNA stored in 20 mM HEPES pH 7.5, 150 mM NaCl, 5 mM DTT, 1 mM MgCl2; MST buffer not given in material
# [8] = tested on: MinElp3Δ1-19 (Methanocaldococcus infernus); assay: MST; details: legend omits CCA; wt data identical to the CCA set; EMSA: 25 C 30 min, 6% native PAGE at 4 C; tRNA stored in 20 mM HEPES pH 7.5, 150 mM NaCl, 5 mM DTT, 1 mM MgCl2; MST buffer not given in material
# [9] = tested on: ScMinElp3 (Methanocaldococcus infernus / Saccharomyces cerevisiae chimera); assay: MST; details: mean of 229, 162, 75; EMSA: 25 C 30 min, 6% native PAGE at 4 C; tRNA stored in 20 mM HEPES pH 7.5, 150 mM NaCl, 5 mM DTT, 1 mM MgCl2; MST buffer not given in material
# [10] = biological target: T4, MinElp3 (Methanocaldococcus infernus); assay: MST; details: EMSA: 25 C 30 min, 6% native PAGE at 4 C; tRNA stored in 20 mM HEPES pH 7.5, 150 mM NaCl, 5 mM DTT, 1 mM MgCl2; MST buffer not given in material
# [11] = biological target: T5, Methanocaldococcus infernus Elp3, full …; assay: ITC
molecule,measurement,setting,value
CC(=O)SCCNC(=O)CCNC(=O)[C@H](O)C(C)(C)COP(=O)(O)OP(=O)(O)OC[C@H]1O[C@@H](n2cnc3c(N)ncnc32)[C@H](O)[C@@H]1OP(=O)(O)O [acetyl-CoA],Kd,MinElp3 [1],108000 ± 55800 nM
same,Kd,MinElp3 [2],135000 ± 55300 nM
same,acetyl-CoA binding measurement (Supplementary Fig. 6b),MinElp3 [3],"As K150A shows normal tRNA and acetyl-CoA binding, we believe that it might be directly involved the hydrolysis reaction"
same,"acetyl-CoA hydrolysis by purified protein, induced by yeast bulk tRNA (weak)",DmcElp3,"DmcElp3, on the other hand, showed ~5-times reduced-induced hydrolysis activity"
(Dmc)tRNAGluUUC,Kd,"MinElp3 [4]; mean of 495, 434, 596",508 nM
(Dmc)tRNAGluUUC(CCA),Kd,[5],1410 nM
same,Kd,[6],143 nM
same,Kd,[7],980 nM
same,Kd,MinElp3 [4],50 nM
same,Kd,[8],210 nM
same,Kd,[9],155 nM
(Sc)tRNACysGCA,Kd,"MinElp3 [4]; replicates 240, 261, 280 nM",260 nM
(Sc)tRNASerUGA,Kd,"MinElp3 [4]; replicates 322, 539, 293 nM",370 nM
GCUCGUAUGGCGCAGUGGUAGCGCAGCAGAUUGCAAAUCUGUUGGUCCUUAGUUCGAUCCUGAGUGCGAGCUGCGUCUUCCCAUGGGUGUAUUCGGUCG [(Sc)tRNACysGCA],Kd,[10],260 nM
YSTGGKAPRK-NH2 (not fully specified (N-terminus)) [histone H3 peptide H3(10–18) with an added N-terminal tyrosine],Kd,[11],> 350000 nM
